Experimental data: patent US20120115880A1 (ST JUDE CHILDREN S RESEARCH HOSPITAL, published 2012)

Tests used:
[1] = molecular target: T1, recombinant MDM2 (amino acid residues 1-188) GST fusion protein (UniProt Q00987 1-188); test: fluorescence polarization assay with recombinant GST-MDM2 (1-188)
T1 construct: range 1-188; Expressed in E. coli BL21(DE3) from pGEX-4-T-1 and eluted as a GST fusion; GST is placed N-terminally by the usual layout of the vector; not shown: glutathione S-transferase tag encoded by pGEX-4-T-1
T1 sequence (Q00987 1-188): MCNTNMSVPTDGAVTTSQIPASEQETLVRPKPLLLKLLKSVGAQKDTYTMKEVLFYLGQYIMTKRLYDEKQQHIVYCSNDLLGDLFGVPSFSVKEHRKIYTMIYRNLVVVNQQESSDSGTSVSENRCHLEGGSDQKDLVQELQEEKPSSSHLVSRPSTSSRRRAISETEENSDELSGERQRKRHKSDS
Description: (§1) Kd's and Kᵢ's were calculated by fitting the data to a single-site binding mode with variable slope (Y=Bottom+(Top−Bottom)/(1+10̂((LogEC50-X)*HillSlope))) using […] PRISM software.

[2] = molecular target: T2, recombinant MDMX (amino acid residues 1-185) GST fusion protein (UniProt O15151 1-185); test: fluorescence polarization assay with recombinant GST-MDMX (1-185)
T2 construct: range 1-185; Expressed in E. coli BL21(DE3) from pGEX-4-T-1 and eluted as a GST fusion; GST is placed N-terminally by the usual layout of the vector; also called MDMX-GST; not shown: glutathione S-transferase tag encoded by pGEX-4-T-1
T2 sequence (looked up): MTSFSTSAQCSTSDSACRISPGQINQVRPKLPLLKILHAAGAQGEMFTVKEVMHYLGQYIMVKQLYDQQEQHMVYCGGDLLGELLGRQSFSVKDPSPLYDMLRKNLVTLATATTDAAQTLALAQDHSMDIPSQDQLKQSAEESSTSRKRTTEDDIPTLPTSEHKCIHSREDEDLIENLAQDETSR
Description: as §1

H-GSGSSQETASDLAKLAPEN-OH: no binding [1]; no binding [2].
